Results on five molecules are retold here after publication PMC5636791, “Non-canonical reader modules of BAZ1A promote recovery from DNA damage”.

Residue numbers refer to the chain shown, from its start.

Data set [1] addresses T1, BAZ1A-PHD (human, UniProt Q9NRL2 1137-1202).
T1 sequence: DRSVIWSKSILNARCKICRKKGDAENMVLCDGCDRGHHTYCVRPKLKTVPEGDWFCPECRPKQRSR
In words: BLI. Conditions: n=6; value from figure text layer, assigned to the nucleosome panel; BLI: 50 mM Tris pH 7.5, 150 mM NaCl, 1 mM TCEP, 0.5% BSA, 0.01% Tween-20, 23 C; FP: 20 mM Tris pH 7.5, 150 mM NaCl, 1% glycerol, 0.5 mg/mL BSA, 0.05% Triton ….

Data set [2] concerns the target T1, BAZ1A-PHD. In words: HDX-MS; 30 uM protein, 100 uM DNA; C-terminal region protected, incl. K1181 and K1183; BLI: 50 mM Tris pH 7.5, 150 mM NaCl, 1 mM TCEP, 0.5% BSA, 0.01% Tween-20, 23 C; FP: 20 mM Tris pH 7.5, 150 mM NaCl, 1% glycerol, 0.5 mg/mL BSA, 0.05% Triton X-100, RT, 50 nM probe; HDX: PBS pH 7.2, 5 C. The settings on record: protein: recombinant; tags: His6-FLAG N-terminal, removed (TEV/thrombin) for BLI; HDX construct tag-free with extra non-native residues; blunt.

Data set [3] addresses T2, BAZ1A-PHD K1181A/K1183Y (KAKY) (human, UniProt Q9NRL2 1137-1202, K1181A;K1183Y).
T2 sequence: T1 sequence with K45A, K47Y
In words: BLI; BLI: 50 mM Tris pH 7.5, 150 mM NaCl, 1 mM TCEP, 0.5% BSA, 0.01% Tween-20, 23 C; FP: 20 mM Tris pH 7.5, 150 mM NaCl, 1% glycerol, 0.5 mg/mL BSA, 0.05% Triton X-100, RT, 50 nM probe; HDX: PBS pH 7.2, 5 C. Conditions: protein: recombinant; tags: His6-FLAG N-terminal, removed for BLI; label: 5' biotin; blunt. In general terms: BLI is a label-free optical method that tracks binding on a fibre tip over time.

The target in another data set is T3, BAZ1B-PHD (UniProt Q9UIG0 1172-1237).
T3 sequence: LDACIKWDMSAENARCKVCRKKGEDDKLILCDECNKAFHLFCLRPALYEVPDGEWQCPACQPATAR
The description is as above. Conditions: protein: recombinant; tags: His6-FLAG N-terminal, removed for BLI; label: 5' biotin; blunt.

A further data set has as its target T4, BAZ1B-PHD A1227K/Y1229K (UniProt Q9UIG0 1172-1237, A1217K;Y1219K).
T4 sequence: T3 sequence with A46K, Y48K
Described as above. Conditions: protein: recombinant; tags: His6-FLAG N-terminal, removed for BLI; label: 5' biotin; blunt.

Another data set addresses T5, dAcf1-PHD(1) (Drosophila, UniProt Q9V9T4 1051-1115).
T5 sequence: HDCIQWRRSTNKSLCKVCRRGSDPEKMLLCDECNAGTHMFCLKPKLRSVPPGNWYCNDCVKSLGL
The description is as above. The settings on record: protein: recombinant; tags: His6-FLAG N-terminal, removed for BLI; label: 5' biotin; blunt.

Data set [4] addresses T1, BAZ1A-PHD. In words: BLI; n=10; BLI: 50 mM Tris pH 7.5, 150 mM NaCl, 1 mM TCEP, 0.5% BSA, 0.01% Tween-20, 23 C; FP: 20 mM Tris pH 7.5, 150 mM NaCl, 1% glycerol, 0.5 mg/mL BSA, 0.05% Triton X-100, RT, 50 nM probe; HDX: PBS pH 7.2, 5 C. The settings on record: protein: recombinant; tags: His6-FLAG N-terminal, removed (TEV/thrombin) for BLI; HDX construct tag-free with extra non-native residues; label: 5' biotin; blunt.

Data set [5] concerns the target T1, BAZ1A-PHD. In words: competition; fluorescence polarization, 5.3 uM protein, 50 nM labeled probe; IC50 not in text; BLI: 50 mM Tris pH 7.5, 150 mM NaCl, 1 mM TCEP, 0.5% BSA, 0.01% Tween-20, 23 C; FP: 20 mM Tris pH 7.5, 150 mM NaCl, 1% glycerol, 0.5 mg/mL BSA, 0.05% Triton X-100, RT, 50 nM probe; HDX: PBS pH 7.2, 5 C. Conditions: protein: recombinant; tags: His6-FLAG N-terminal, removed (TEV/thrombin) for BLI; HDX construct tag-free with extra non-native residues; blunt.

For data set [6], the target named is T1, BAZ1A-PHD. In words: BLI; identical results to scrambled sequence; BLI: 50 mM Tris pH 7.5, 150 mM NaCl, 1 mM TCEP, 0.5% BSA, 0.01% Tween-20, 23 C; FP: 20 mM Tris pH 7.5, 150 mM NaCl, 1% glycerol, 0.5 mg/mL BSA, 0.05% Triton X-100, RT, 50 nM probe; HDX: PBS pH 7.2, 5 C. The settings on record: protein: recombinant; tags: His6-FLAG N-terminal, removed (TEV/thrombin) for BLI; HDX construct tag-free with extra non-native residues; label: 5' biotin; blunt.

Broadly, the Kd is the free concentration of one partner at which half of the binding sites on the other are occupied at equilibrium, for simple one-to-one binding. Consider “human biotinylated mononucleosome (EpiCypher)”, for which the Kd with BAZ1A-PHD [1] is 48 µM.

B1: 20 bp HDX duplex (dsDNA)
DNA 1: ACTGACTCTGGACTACTGAG
DNA 2: CTCAGTAGTCCAGAGTCAGT
B1: the binding result with BAZ1A-PHD [2] was “binds”.

B2: scrambled Widom-601 145 bp duplex (dsDNA)
DNA 1: CTTGCATCGATCCGATTGAACCATCGCTCGGTGACAGCTACGTGACTTAGTGTGCCCCATCGATCCAGTTCGATCACAGGCCACCTGAGTCGAGAGTATCGACACCCAGTGAACGATCGATCCGACTCGATCGCCTCACTGCTAG
DNA 2: CTAGCAGTGAGGCGATCGAGTCGGATCGATCGTTCACTGGGTGTCGATACTCTCGACTCAGGTGGCCTGTGATCGAACTGGATCGATGGGGCACACTAAGTCACGTAGCTGTCACCGAGCGATGGTTCAATCGGATCGATGCAAG
B2: the binding result (in [3]; in the data set with BAZ1B-PHD; with BAZ1B-PHD A1227K/Y1229K; with dAcf1-PHD(1)) was “no binding” each time. Moreover, the Kd in the data set with BAZ1A-PHD [4] was found to be 51 ± 9 µM.

B3: Widom-601 145 bp duplex, unlabeled (dsDNA)
DNA 1: ATCAGAATCCCGGTGCCGAGGCCGCTCAATTGGTCGTAGACAGCTCTAGCACCGCTTAAACGCACGTACGCGCTGTCCCCCGCGTTTTAACCGCCAAGGGGATTACTCCCTAGTCTCCAGGCACGTGTCAGATATATACATCGAT
DNA 2: ATCGATGTATATATCTGACACGTGCCTGGAGACTAGGGAGTAATCCCCTTGGCGGTTAAAACGCGGGGGACAGCGCGTACGTGCGTTTAAGCGGTGCTAGAGCTGTCTACGACCAATTGAGCGGCCTCGGCACCGGGATTCTGAT
B3: the binding result in the data set with BAZ1A-PHD [5] is “binds”.

B4: Widom-601 145 bp duplex, biotinylated (dsDNA)
DNA 1: B3 DNA 1
DNA 2: B3 DNA 2
Consider B4, for which the binding result in the data set with BAZ1A-PHD [6] is “binds”.
